Measurements reported in paper PMC13418734.

Legend:
[1] = target: Fluc^K378C-K496C (Fluc^CDS1, C-terminal domain sensor) (firefly); assay: FRET or BRET; single-molecule FRET (TIRF) within AF555/AF647-labelled Fluc immobilised on a neutravidin coverslip; the low-FRET (<0.3) state is read as DnaK bound; DnaJ 0.6 uM, DnaK 20 uM, GrpE 1.2 uM and HtpG 10 uM (KJEG); ATP; imaging buffer, room temperature
[2] = target: Fluc^A12C-K329C (Fluc^NDS1, N-terminal domain sensor) (firefly); assay: as above

percent of the time DnaK bound (<0.3 FRET) after 15 min [1]: 15%
percent of the time DnaK bound (<0.3 FRET) after 15 min [2]: 15%
Substance: DnaK (Escherichia coli Hsp70) (from UniProt P0A6Y8 1-638) (natural protein)
